In the DeepSol protein solubility set:

Experiment: soluble on expression in E. coli; label from the status in PepcDB or PDB records

Sequence | soluble on expression in E. coli
MSILVYDREHNFKKWYIYWIPKTKMLGVKDDKDVVYEKMCTLQERTDILKVSKSLVEEKWSSLFSESGLHIEEVCEKELVLTFALQRNITLERTELSGRFDECLYLEYLRLKTLTNVSPMKRKRTASTVEHVIRSDDIKPILAPKSDPVKKRTTRMAAKASGPEFDDE | not soluble
GKEHILVCISPSQGNEKVIRTAARMAEALKGKLTAVFVETPEYEESSIKEQESLRKNLRLAEQLGAQISSVYGEDISQQLAEYANVSQATKIILGRSSKRKSWLKPKLVDKLSEQIDSTDIYIIPDTQP | not soluble
MPKIILVSHSKEIASGTKSLLKQMAGDVDIIPIGGLPDGSIGTSFDIIQEVLTKLEDDALCFYDIGSSEMNVDMAIEMYDGNHRVLKVDAPIVEGSFIAAVKLSIGGSIDDALAEIKQSFLEHHHHHH | soluble
MGSDKIHHHHHHMLKVSDLTVGNNFVHNVSFEVNPGERVGIIGESGSGKSLTALSIMGLTDLPTTGQITFNGKPSATFRGTRIAMVFQEPMSALNPLMRIGRQIEEMMTLHGASKKDARARLKSLLIDVSLPERTASAYPHELSGGQRQRALIAMALANDPDLLICDEPTTALDVVVQKQIVDLLLRLTKERGTALLFITHDLGLIARTCERLLVMKSGETVERGDTEAILRSPAHSYTQQLLDASILDQPEIASDSGAPVVIDVEEASKSFKETTALHKVSLAVRKGDLLGIVGGSGSGKTTLLKLIAGLDKPTTGTVAVTGGVQMVFQDPQSSLNPRMKIKDIVAEPLLGWNAAEKTTRVAEVITQVGLSPDVLDRYPHEFSGGQRQRISIARALAIKPAILLADEPVSALDVSVRKQVLDLLQQLVEEYGITLVFVSHDLAVVRHLCTTVWVMEQGRVLEQGPIDSVYDHPQTEYTKELLDAVPRLSL | not soluble
SLKSLNHISLLCRSVEESISFYQNVLGFLPIRRPDSFDFDGAWLFGHGIGIHLLQSPEPEKLLKKTEINPKDNHISFQCESMEAVEKKLKEMEIEYVRAVVEEGGIQVDQLFFHDPDAFMIEICNCDSLPVIPLAGEMARSCSRLNIRQLVQPTQIHEG | soluble
MGSDKIHHHHHHMSGQLHKMWYFPHMNQHEATVTDGDELQQFIAEAIALVGGVRALASIAGVSERTVYAWKNGERFPSRTNLNRLSEHLEHLSRQGYSPSAPQPHWRALRERMPGSYAPQQPDDTDRLTEEFVFVDKAEARPSAGGGSLETSARAETRYAFRLDWVLQKTPTSEGLRMMEVAGRSMENTLHNGDLVLVNERDVHLVEDRVYVVRVHDEIYVKRFARTPGCYHFRGDNRELAYQDISIDPRDENLDWEVIGRVLWAGKEL | not soluble
MMQTSTSSRVRRYPYQITLSLVLKGFYSPSAPSYDFCLVLLPTLFLIDLMPIKFSLHVTIGIGEATPVPIFFFSAPWYFRSGNPLPHCVRAYRCKVNFPFFRLGWSTWLHY | soluble
MTQVIIDGDACPVTNSIIELTKGTGIFVTVVRSFSHFSTVIQPEHVNIIYVDDGPDAVDYRIVKLVHSDDLVVTQDYGLASLLLNKAKIVMHHKGFIYNQENINTLLEQRHASAQFRKSGLEHHHHHH | not soluble
MSHPRYKSLLNRDRIVEAFESGVLAKGGMIAHGRGETFDYLIGESTTDAALNSIKVSAALLVLAENPVISVNGNSVALAKDEFVELAKELNGKIEVNLFYRTTEREEKIKDVFESDINGGIVLLGIDNADKQIPGIDHLRGKVSESGIYTSDVVLVPLEDGDRAEALVKMGKTVIAIDLNPLSRTARKSTISIIDELTRCIPLITEYVREYKKMDRAELLKIVENYDNEENLRNILNLISKRLTSVDLEHHHHHH | not soluble
MAHHHHHHMSTGHLRSVQLCRGQLRSLSHSSSMVGLRDFCNLVDECIKDIGVLKVNADDARILLHKRQQTFPSRHCDGVLAQTQVLYAQVLLKNLAEPVNRLIVRPVAVKNEGSEGLGVLHKPYDGAQSASPEIIAAQLELLQRAHRPTALNVLQDCRVHAATLLRAVRAVQLAQVRFSPHEKCTNTHGPKKKKK | not soluble
LKQQQQQQQQQQQQQQQQQQQQQQQQQQQQQQQQQQQQQQQQQQQQQQQQQQQQQQQQQQQQQQQQQQKSQNRTKQEQGQQSQNQQDAENKKEKQESEHKAKQQKAETEVEKQGEQKKGEPMQAQAQPEKSHQDDPEFRRLEAVESARDPSFLIRAQMQLQAQQKQRPQQSQKEW | not soluble
MSLNVTVHGVPVGSLTREEARAKIESHFAPFLAQPVMLTYSGRTWTPTLAELGAELAIDEAVDKAVAVGRGHDLFTNLQQIGAVWQRGLELPLHLSIDQDALQRYLLDRVAEVERPAVDARLVLHGTTVRVEPSAFGRQVLVNDTLHEIVAALQDLNPDTIALRTRTLEPALRDDAAIVAQDQIAALLAGPITLLIDDRPFVWSLDELARMVRVERIPDPAGDRLVVSIDHELVRARIREIGDATEVKGTYPRLNWNDGRLEIFQEGKPGRRIDEDQVFAAVLDALTKPAEQRTVTVAFREIPPPITAANLDQLGITTLIGVGRSDFTGSAAYRVTNIQAGMRLLHGVLIAPGEEFSFNQTIGRIDRSNGFVEGYAIIQNRTQLEWGGGICQDSTTMFRAAFWAGLPITERWGHSFYISWYDRYAFGPYGDGPGMDATIFTGGPDLKFLNDTGGWLLIQTLVDTHRHLAEVRLYGPDTGRKVLLEGPIITNRTEGHHHHHH | soluble
MSLSTIRIGGAAVNQTPIDWENNVKNILDAIEEAKNANVEILCLPELCITGYGCEDLFLTDWVAETAIEYCFEIAASCTDITVSLGLPMRIAGITYNCVCLVENGIVKGFSAKQFLANEGVHYETRWFTAWPRNHTTTFLYNDVKYPFGDVLYNVKDARIGFEICEDAWRTDRVGIRHYEKGATLVLNPSASHFAFGKSAIRYDLVIGGSERFDCTYVYANLLGNEAGRMIYDGEVLIAHKGKLIQRNDRLSFKNVNLIYADIATDSAETPETVLTQDDLEKEFEFWEATSLGLFDYMRKSRSKGFVLSLSGGADSSACAIMVAEMIRKGLKELGLTAFLQKSNMETLFDLPALQHLPFEEQAKKITAVFLTTAYQSTRNSGDETYTSAKTLAESIGATFYNWSVDEEIEQYKATIENVIERPLTWEKDDITLQNIQARGRAPIIWMLTNVKQALLITTSNRSEGDVGYATMDGDTAGGIAPIAGVDKDFIRSWLRWAEKNRNQHGLHIVNKLAPTAELRPSEYTQTDERDLMPYDVLARIERKAIKERLSPVQVYTALLTEGPYTKNEFKYWVKKFFRLWSINQWKRERLAPSFHMDDFNIDPRSWYRFPILSSGFAKELNDLDQEGHHHHHH | soluble
MIYTVTLNPSIDYVVQVNSLDLGAVNRAEKDMKFPGGKGINVSRVLHRLGVENVALGFTGGFTGRFIKDVLQTEGVITNFVQVDGDSRINVKIKGQEETELNGQGPSVTNEQFEQLMKQIESMQKGDYVVLAGSVPASIPTTFYESIAAFGAEKGIRVVVDASGSALQHVVKNKPFLIKPNHHELGELFGVEISTAEDILPYGRKLIEQGVEHVIVSMAGDGALLFTAEGIYEATVPKGVVINSVGAGDSLVAGFVGKYEQTKDIEKAFQYGVATGSATAFSADLCEKEKVEELLSQVIVTKR | not soluble
MGVFLFDRDCRYTVAGGGEISSAGLTPADFEGSKPHDLFSEAIADELEHYYREALDGHSHSFEQQYRGKHYRVQTVPVRDDNGEVISGLAVSEDVTARRERQRTLERQNERLREFAGVVSHDLRNPLNVAQGRLKLARAECDSEHLDNVAAAIERSNRLIDDLLTLASSGDEVTETASLDLGAVVDGCWQNVPTDGATLVVRSEQTVVADRGRLEQLLENLVRNAVEHAFPQSEVSLDAAEGDASDLTVTVGALEDGFYVEDTGPGIPPEERDDVFKGGYSTAADGTGFGLRIVRQIAEAHGWTVTVADGEHGGARFEVRGIETT | not soluble
GPGSMIIWAVGTTNKAKLDSVDIAVRMCFPSYQHDVRPVAVLSIVRAQPISAEESQQGAQHRAHEALSLVPEAHYGVGLEGGLEKISDRWFECGWMYVIERSTGRCGIGSSARFEMSQKLMSKILDEGKELAEVMDEMTGETDVRSGQGAMGVLTAGYLNRAESYSHGLIFALAPFLSDHKYWD | not soluble
